Two molecules from paper PMC12080921 (2025) can be followed below.

The chains are these.
B1: biotinylated bovine FI (enzyme)
chain 1: EDNFRKRGKSKAVKKSEAHHAPEASLSKETEASSEVKPTSTQDTSQKDFVDKKCLTEKHTHLSCNKVFCQPWQKCIDGTCLCKLPYQCPKNGTRVCSTNGKSYSTYCQQKSFECYRPEAKFLKSGACTGGGQFSVSLSNGKQDSEGIVAVKLADLDTKMFVCGDSWSITEANVACIDRGFQLGALDTHRRDPDPNSAECLHVRCRGLETSLAECTFTKGVHNSEGLAGVVCYTESAAPPKKDSFQCVNGKRIPQKKACDGVNDCVDKSDELCCKDCRGEGFLCKSGVCIPKQYKCNGELDCITGEDEVGCEETGHPEIKEAAEMLTADMDAERKFTKSFLPKLSCGVKNNMHI
chain 2: VVGGKPAKMGEFPWQMAIKEGDKIHCGGIYIGGCWILTAAHCVRISRMHRYQIWTSFTDWLRPGFQTVVHSVNRIIIHENYNGTTYQNDIALIEMKKRPNEKECVLSKSIPACVPWSPYLFQPNDKCIVSGWGREKDNQKVYSLRWGEVHLINNCSEFYPGRYFEKEMQCAGTDDGSIDACKGDSGGPLVCQDVNNVTYVWGVVSWGENCGKSEFPGVYTKVANYFDWISQHVGRSLISQHNI
modifications: biotin (EZ-link NHS-biotin; sites not stated) | biotin (EZ-link NHS-biotin; sites not stated)

Assay [1] deals with T1, PmSLP-1^95-318 SERp (Pasteurella multocida strain 36950). Nature of the assay: BLI.
Assay [2] has as its target T1, PmSLP-1^95-318 SERp. Nature of the assay: BLI; kinetic fit. On the technique in general: Biolayer interferometry detects binding as a change in optical thickness at a sensor tip.
For assay [3], the target named is B1. Put plainly: BLI.
Assay [4] has as its target B1. Put plainly: BLI; kinetic fit.

B1 displayed a koff with PmSLP-1^95-318 SERp [1] of 0.008 s⁻¹. The molecule also yielded an equilibrium dissociation constant (Kd) with PmSLP-1^95-318 SERp [2] of 30 nM.

B2: PmSLP-1^15-318 (domain or fragment)
chain: MEKRTVTIPQAQKVAEKPALTIQTVVTSPTTPIKAPSLAPTIDTAPKQNPVPTAQITATLPAEPVKVPVLIPEVNKTLLETSTNPVKDSYNKDAVFTYELIANPDADYSDQKLILKKEISYIKLNLGINQDNKNAPSYIFNLLDDNVYYGFYRDTQDMNRIENKYTYAFKKEAENFDNLQKFNATYEGQFWFSSIDTPNVPTVARAFLTYNNGRVDGEILAKHWNEKLFQITGFDNNPRKVEIFPTVEYLPNSGTRLTKGATSPHRFQMDLHFINSTNGEKNKYLVGQGSTEQYWGVLGMEKKQELALVPR
With B2, the koff with biotinylated bovine FI [3] was determined as 0.0059 s⁻¹. In addition, in the assay with biotinylated bovine FI [4], the dissociation constant Kd stood at 18 nM.

The term koff denotes the rate constant with which the complex falls apart. For orientation: Kd means the free concentration of one partner at which half of the binding sites on the other are occupied at equilibrium, for simple one-to-one binding.
